One variant from IntAct's records for PubMed 17875927 can be followed below.

The labels stand for the following.
B1: CBL-interacting serine/threonine-protein kinase 24 (Arabidopsis thaliana (Mouse-ear cress)), Q9LDI3 (parent)
chain: MTKKMRRVGKYEVGRTIGEGTFAKVKFARNTDTGDNVAIKIMAKSTILKNRMVDQIKREISIMKIVRHPNIVRLYEVLASPSKIYIVLEFVTGGELFDRIVHKGRLEESESRKYFQQLVDAVAHCHCKGVYHRDLKPENLLLDTNGNLKVSDFGLSALPQEGVELLRTTCGTPNYVAPEVLSGQGYDGSAADIWSCGVILFVILAGYLPFSETDLPGLYRKINAAEFSCPPWFSAEVKFLIHRILDPNPKTRIQIQGIKKDPWFRLNYVPIRAREEEEVNLDDIRAVFDGIEGSYVAENVERNDEGPLMMNAFEMITLSQGLNLSALFDRRQDFVKRQTRFVSRREPSEIIANIEAVANSMGFKSHTRNFKTRLEGLSSIKAGQLAVVIEIYEVAPSLFMVDVRKAAGETLEYHKFYKKLCSKLENIIWRATEGIPKSEILRTITF

One assay covers variants of B1. The note with it: with vatb1_arath VHA-B1, P11574.
vatb1_arath VHA-B1, P11574, sequence (P11574 whole entry): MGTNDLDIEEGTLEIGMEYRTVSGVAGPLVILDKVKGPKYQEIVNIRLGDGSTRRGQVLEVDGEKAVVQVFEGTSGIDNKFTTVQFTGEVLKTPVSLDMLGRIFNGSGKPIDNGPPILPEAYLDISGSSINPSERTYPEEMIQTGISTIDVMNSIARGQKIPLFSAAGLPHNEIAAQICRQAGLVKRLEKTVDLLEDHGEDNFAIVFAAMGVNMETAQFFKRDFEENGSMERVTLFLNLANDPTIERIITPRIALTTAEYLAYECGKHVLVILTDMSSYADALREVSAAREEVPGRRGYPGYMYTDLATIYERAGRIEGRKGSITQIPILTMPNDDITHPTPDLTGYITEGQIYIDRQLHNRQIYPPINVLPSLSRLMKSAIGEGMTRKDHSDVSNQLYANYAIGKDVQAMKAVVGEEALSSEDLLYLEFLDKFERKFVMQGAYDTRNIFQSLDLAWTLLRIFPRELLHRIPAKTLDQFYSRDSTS
Turning to MTKKMRRVGKYEVGRTIGEGTFAKVKFARNTDTGDNVAINIMAKSTILKNRMVDQIKREISIMKIVRHPNIVRLYEVLASPSKIYIVLEFVTGGELFDRIVHKGRLEESESRKYFQQLVDAVAHCHCKGVYHRDLKPENLLLDTNGNLKVSDFGLSALPQEGVELLRTTCGTPNYVAPEVLSGQGYDGSAADIWSCGVILFVILAGYLPFSETDLPGLYRKINAAEFSCPPWFSAEVKFLIHRILDPNPKTRIQIQGIKKDPWFRLNYVPIRAREEEEVNLDDIRAVFDGIEGSYVAENVERNDEGPLMMNAFEMITLSQGLNLSALFDRRQDFVKRQTRFVSRREPSEIIANIEAVANSMGFKSHTRNFKTRLEGLSSIKAGQLAVVIEIYEVAPSLFMVDVRKAAGETLEYHKFYKKLCSKLENIIWRATEGIPKSEILRTITF [K40N], the “effect of a mutation on the interaction” value is “decreasing interaction”.

Another assay covers variants of B1. The following applies: with vatb2_arath VHA-B2, Q9SZN1.
vatb2_arath VHA-B2, Q9SZN1, sequence (Q9SZN1 whole entry): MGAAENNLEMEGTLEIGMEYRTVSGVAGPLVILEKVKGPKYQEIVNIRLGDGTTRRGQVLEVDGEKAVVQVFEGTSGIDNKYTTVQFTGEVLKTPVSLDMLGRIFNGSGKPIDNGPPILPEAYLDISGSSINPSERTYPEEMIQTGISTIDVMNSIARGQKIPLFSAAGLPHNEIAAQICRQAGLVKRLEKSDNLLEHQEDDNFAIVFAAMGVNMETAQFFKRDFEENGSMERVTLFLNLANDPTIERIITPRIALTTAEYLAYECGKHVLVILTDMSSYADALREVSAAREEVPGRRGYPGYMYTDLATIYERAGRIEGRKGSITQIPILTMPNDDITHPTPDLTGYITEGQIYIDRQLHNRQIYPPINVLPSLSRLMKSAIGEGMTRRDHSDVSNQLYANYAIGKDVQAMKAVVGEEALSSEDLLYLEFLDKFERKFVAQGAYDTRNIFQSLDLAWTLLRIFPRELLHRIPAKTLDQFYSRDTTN
As for MTKKMRRVGKYEVGRTIGEGTFAKVKFARNTDTGDNVAINIMAKSTILKNRMVDQIKREISIMKIVRHPNIVRLYEVLASPSKIYIVLEFVTGGELFDRIVHKGRLEESESRKYFQQLVDAVAHCHCKGVYHRDLKPENLLLDTNGNLKVSDFGLSALPQEGVELLRTTCGTPNYVAPEVLSGQGYDGSAADIWSCGVILFVILAGYLPFSETDLPGLYRKINAAEFSCPPWFSAEVKFLIHRILDPNPKTRIQIQGIKKDPWFRLNYVPIRAREEEEVNLDDIRAVFDGIEGSYVAENVERNDEGPLMMNAFEMITLSQGLNLSALFDRRQDFVKRQTRFVSRREPSEIIANIEAVANSMGFKSHTRNFKTRLEGLSSIKAGQLAVVIEIYEVAPSLFMVDVRKAAGETLEYHKFYKKLCSKLENIIWRATEGIPKSEILRTITF [K40N], the “effect of a mutation on the interaction” value is on record as “decreasing interaction”.
